# B1: scFv-VHH bispecific molecule JL1 x 5D3 (scFv (VL-L-VH)-L-VHH with C-tag) (bispecific antibody)
# chain: DIVMTQSPLSLPVTPGEPASISCKSSQSLLFSNGYKFLDWYLQRPGQSPQLLIYLGSYRASGVPDRFSGSGSGTDFTLKISRVEAEDVGLYYCMQALQTPPTFGGGTKVEIKGGSEGKSSGSGSESKSTGGSEVQLVESGGGLVQPGGSLKVSCEASGFTFSVSAIHWVRQASGKGLEWIGRIRSKGNSYATAYAASVKGRFTISRDDSKNTAYLQMDSLKTEDTAVYYCTRHNDKWNYYGLDVWGQGTTVTVSSGGGGSEVQLVESGGGLVQAGGSLRLSCAASGRPFSNYAMGWFRQAPGKEREFVTVISWSGGSTYYADSVKGRFTISRDNAKNTVYLQMNSLKPEDTAVYYCAAQFSGASTVVAGTALDYDYWGQGTRVTVSSAAAEPEA
# B2: scFv-VHH bispecific molecule JL4 x 6H4 (scFv (VL-L-VH)-L-VHH with C-tag) (bispecific antibody)
# chain: DVVMTQSPLSLPVTLGQPASISCRSSQSLVYSDGNTYLNWFQQRPGQSPRRLIYKVSTRDSGVPDRFSGSGSGTDFTLKISRVEAEDVAVYYCLQGTHWPWTFGQGTKVEIKGGSEGKSSGSGSESKSTGGSQVQLVESGGGLVQPGGSLRLSCAASGITFSNYWMSWVRQAPGKGLEWVASIKRDGSDKYYVDSVKGRFTISRDNAKNSLSLQMHSLRAEDTAVYYCAKGEFDYWGQGTLVTVSSGGGGSEVQLVESGGGLVQAGGSLRLSCAASGRPFSNYGMGWFRQAPGKKREFVAGISWSGGSTDYADSVKGRFTISRDNAKNTVYLQMNSLKPEDTAVYYCAAVFSGAETAYYPSDDYDYWGQGTQVTVSSAAAEPEA
# B3: scFv-VHH bispecific molecule JL1 x 6H4 (scFv (VL-L-VH)-L-VHH with C-tag) (bispecific antibody)
# chain: DIVMTQSPLSLPVTPGEPASISCKSSQSLLFSNGYKFLDWYLQRPGQSPQLLIYLGSYRASGVPDRFSGSGSGTDFTLKISRVEAEDVGLYYCMQALQTPPTFGGGTKVEIKGGSEGKSSGSGSESKSTGGSEVQLVESGGGLVQPGGSLKVSCEASGFTFSVSAIHWVRQASGKGLEWIGRIRSKGNSYATAYAASVKGRFTISRDDSKNTAYLQMDSLKTEDTAVYYCTRHNDKWNYYGLDVWGQGTTVTVSSGGGGSEVQLVESGGGLVQAGGSLRLSCAASGRPFSNYGMGWFRQAPGKKREFVAGISWSGGSTDYADSVKGRFTISRDNAKNTVYLQMNSLKPEDTAVYYCAAVFSGAETAYYPSDDYDYWGQGTQVTVSSAAAEPEA
# B4: scFv-VHH bispecific molecule JL2 x 5D3 (scFv (VL-L-VH)-L-VHH with C-tag) (bispecific antibody)
# chain: DIVMTQSPLSLPVTPGEPASISCRSSQSLLHSDGYNYLDWYLQKSGQSPQLLIYLGSYRASGVPDRFSGSGSGTDFTLKISRVEAEDVGIYYCMQVLQTPWTFGQGTKVEIKGGSEGKSSGSGSESKSTGGSEVQLVESGGGLVQPGGSLRLSCVVSGFTFSSYWMTWVRQAPGKGLEWVANIKQDGSERYYVDSVKGRFTISRDSAKNSLYLQMNSLRAEDTAVYYCAREVGYNWNQGGYFDYWGQGTLVTVSSGGGGSEVQLVESGGGLVQAGGSLRLSCAASGRPFSNYAMGWFRQAPGKEREFVTVISWSGGSTYYADSVKGRFTISRDNAKNTVYLQMNSLKPEDTAVYYCAAQFSGASTVVAGTALDYDYWGQGTRVTVSSAAAEPEA
# B5: scFv-VHH bispecific molecule JL5 x 5D3 (scFv (VL-L-VH)-L-VHH with C-tag) (bispecific antibody)
# chain: QSVLTQPPSASGTPGQRVTISCSGSSSNIGSNIVNWYQQFPGTAPKLLIYSNNQRPSGVPDRVSGSKSGTSASLAISGLQSEDEADYYCAAWDDSLNGPVFGPGTKVTVLGGSEGKSSGSGSESKSTGGSQVQLQESGPGLVKPSETLSLTCSVSGASIRNYYWSWIRQTAGKGLEWLGHIYSTGNIHYNPSLKSRVTMSVDTSNNQFSLKLRSVTAADTAVYYCARDNGAALFDYWGQGTLVTVSSGGGGSEVQLVESGGGLVQAGGSLRLSCAASGRPFSNYAMGWFRQAPGKEREFVTVISWSGGSTYYADSVKGRFTISRDNAKNTVYLQMNSLKPEDTAVYYCAAQFSGASTVVAGTALDYDYWGQGTRVTVSSAAAEPEA
# B6: scFv-VHH bispecific molecule JL2 x 6H4 (scFv (VL-L-VH)-L-VHH with C-tag) (bispecific antibody)
# chain: DIVMTQSPLSLPVTPGEPASISCRSSQSLLHSDGYNYLDWYLQKSGQSPQLLIYLGSYRASGVPDRFSGSGSGTDFTLKISRVEAEDVGIYYCMQVLQTPWTFGQGTKVEIKGGSEGKSSGSGSESKSTGGSEVQLVESGGGLVQPGGSLRLSCVVSGFTFSSYWMTWVRQAPGKGLEWVANIKQDGSERYYVDSVKGRFTISRDSAKNSLYLQMNSLRAEDTAVYYCAREVGYNWNQGGYFDYWGQGTLVTVSSGGGGSEVQLVESGGGLVQAGGSLRLSCAASGRPFSNYGMGWFRQAPGKKREFVAGISWSGGSTDYADSVKGRFTISRDNAKNTVYLQMNSLKPEDTAVYYCAAVFSGAETAYYPSDDYDYWGQGTQVTVSSAAAEPEA
# B7: scFv-VHH bispecific molecule JL6 x 5D3 (scFv (VL-L-VH)-L-VHH with C-tag) (bispecific antibody)
# chain: QSVLTQPPSASGTPGQRVTISCSGSSSNIGSNPVNWYQQLPGTAPKLLIYSNNQRPSGVPDRFSGSKSGTSASLAISGLQSEDEADYFCAAWDDSLNGPVFGGGTKLTVLGGSEGKSSGSGSESKSTGGSQVQLQESGPGLVKPSETLSLTCTVSGGSISSYYWGWIRQPPGKGLEWIGYIYYSGSTNYNPSLKSRVTISVDTSKNQFSLKLSSVTAADTAVYYCARMWEILGFDPWGQGTLVTVSSGGGGSEVQLVESGGGLVQAGGSLRLSCAASGRPFSNYAMGWFRQAPGKEREFVTVISWSGGSTYYADSVKGRFTISRDNAKNTVYLQMNSLKPEDTAVYYCAAQFSGASTVVAGTALDYDYWGQGTRVTVSSAAAEPEA
# B8: scFv-VHH bispecific molecule JL6 x 6H4 (scFv (VL-L-VH)-L-VHH with C-tag) (bispecific antibody)
# chain: QSVLTQPPSASGTPGQRVTISCSGSSSNIGSNPVNWYQQLPGTAPKLLIYSNNQRPSGVPDRFSGSKSGTSASLAISGLQSEDEADYFCAAWDDSLNGPVFGGGTKLTVLGGSEGKSSGSGSESKSTGGSQVQLQESGPGLVKPSETLSLTCTVSGGSISSYYWGWIRQPPGKGLEWIGYIYYSGSTNYNPSLKSRVTISVDTSKNQFSLKLSSVTAADTAVYYCARMWEILGFDPWGQGTLVTVSSGGGGSEVQLVESGGGLVQAGGSLRLSCAASGRPFSNYGMGWFRQAPGKKREFVAGISWSGGSTDYADSVKGRFTISRDNAKNTVYLQMNSLKPEDTAVYYCAAVFSGAETAYYPSDDYDYWGQGTQVTVSSAAAEPEA
# B9: scFv-VHH bispecific molecule JL3 x 6H4 (scFv (VL-L-VH)-L-VHH with C-tag) (bispecific antibody)
# chain: QSVLTQPPSASGTPGQRVTISCSGSSSNIGSNIVNWYQQFPGTAPKLLLYSDNQRPSGVPDRFSGSKSGTSASLAISGLQSEDEADYYCAAWDDSLNGPVFGTGTKVTVLGGSEGKSSGSGSESKSTGGSQVQLQESGPGLVKPSETLSLTCSVSGGSIRNYYWSWIRQSAGKELEWFGHIFSTGHINYDSSLKSRVTMSVDTSNNQFSLKLRSVTAADTAVYYCARDNGAALFDFWGQGTLVTVSSGGGGSEVQLVESGGGLVQAGGSLRLSCAASGRPFSNYGMGWFRQAPGKKREFVAGISWSGGSTDYADSVKGRFTISRDNAKNTVYLQMNSLKPEDTAVYYCAAVFSGAETAYYPSDDYDYWGQGTQVTVSSAAAEPEA
# B10: scFv-VHH bispecific molecule JL3 x 5D3 (scFv (VL-L-VH)-L-VHH with C-tag) (bispecific antibody)
# chain: QSVLTQPPSASGTPGQRVTISCSGSSSNIGSNIVNWYQQFPGTAPKLLLYSDNQRPSGVPDRFSGSKSGTSASLAISGLQSEDEADYYCAAWDDSLNGPVFGTGTKVTVLGGSEGKSSGSGSESKSTGGSQVQLQESGPGLVKPSETLSLTCSVSGGSIRNYYWSWIRQSAGKELEWFGHIFSTGHINYDSSLKSRVTMSVDTSNNQFSLKLRSVTAADTAVYYCARDNGAALFDFWGQGTLVTVSSGGGGSEVQLVESGGGLVQAGGSLRLSCAASGRPFSNYAMGWFRQAPGKEREFVTVISWSGGSTYYADSVKGRFTISRDNAKNTVYLQMNSLKPEDTAVYYCAAQFSGASTVVAGTALDYDYWGQGTRVTVSSAAAEPEA
# B11: scFv-VHH bispecific molecule JL5 x 6H4 (scFv (VL-L-VH)-L-VHH with C-tag) (bispecific antibody)
# chain: QSVLTQPPSASGTPGQRVTISCSGSSSNIGSNIVNWYQQFPGTAPKLLIYSNNQRPSGVPDRVSGSKSGTSASLAISGLQSEDEADYYCAAWDDSLNGPVFGPGTKVTVLGGSEGKSSGSGSESKSTGGSQVQLQESGPGLVKPSETLSLTCSVSGASIRNYYWSWIRQTAGKGLEWLGHIYSTGNIHYNPSLKSRVTMSVDTSNNQFSLKLRSVTAADTAVYYCARDNGAALFDYWGQGTLVTVSSGGGGSEVQLVESGGGLVQAGGSLRLSCAASGRPFSNYGMGWFRQAPGKKREFVAGISWSGGSTDYADSVKGRFTISRDNAKNTVYLQMNSLKPEDTAVYYCAAVFSGAETAYYPSDDYDYWGQGTQVTVSSAAAEPEA
# B12: scFv-VHH bispecific molecule JL4 x 5D3 (scFv (VL-L-VH)-L-VHH with C-tag) (bispecific antibody)
# chain: DVVMTQSPLSLPVTLGQPASISCRSSQSLVYSDGNTYLNWFQQRPGQSPRRLIYKVSTRDSGVPDRFSGSGSGTDFTLKISRVEAEDVAVYYCLQGTHWPWTFGQGTKVEIKGGSEGKSSGSGSESKSTGGSQVQLVESGGGLVQPGGSLRLSCAASGITFSNYWMSWVRQAPGKGLEWVASIKRDGSDKYYVDSVKGRFTISRDNAKNSLSLQMHSLRAEDTAVYYCAKGEFDYWGQGTLVTVSSGGGGSEVQLVESGGGLVQAGGSLRLSCAASGRPFSNYAMGWFRQAPGKEREFVTVISWSGGSTYYADSVKGRFTISRDNAKNTVYLQMNSLKPEDTAVYYCAAQFSGASTVVAGTALDYDYWGQGTRVTVSSAAAEPEA
# Target: human CD33 on CD33-expressing THP-1 cells (human, UniProt P20138 18-364)
# Experiment: cell-based or functional assay
# human CD33 on CD33-expressing THP-1 cells, sequence (P20138 18-364): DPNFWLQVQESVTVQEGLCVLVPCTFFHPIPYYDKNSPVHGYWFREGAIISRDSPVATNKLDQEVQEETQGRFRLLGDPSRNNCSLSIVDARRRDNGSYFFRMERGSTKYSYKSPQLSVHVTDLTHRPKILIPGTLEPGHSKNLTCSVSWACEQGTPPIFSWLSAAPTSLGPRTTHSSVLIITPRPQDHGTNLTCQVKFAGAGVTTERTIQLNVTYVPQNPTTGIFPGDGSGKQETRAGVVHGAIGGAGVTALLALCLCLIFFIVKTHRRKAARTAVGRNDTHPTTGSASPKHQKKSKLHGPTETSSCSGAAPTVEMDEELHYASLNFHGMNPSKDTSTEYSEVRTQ
Binder,Cytotox EC50 (nM) Donor 104,Cytotox EC50 (nM) Donor 156
B1,~0.61 nM,~0.43 nM
B2,~0.0004 nM,~0.00035 nM
B3,0.011 nM,0.0098 nM
B4,0.0027 nM,~0.0019 nM
B5,~0.00093 nM,~0.0007 nM
B6,~0.00097 nM,~0.00077 nM
B7,0.0044 nM,0.0029 nM
B8,0.0012 nM,0.0013 nM
B9,~0.00079 nM,~0.00099 nM
B10,~0.0013 nM,~0.0008 nM
B11,~0.0013 nM,~0.0019 nM
B12,~0.027 nM,0.023 nM

# — US20240409634A1 (Janssen / Centocor, published 2024)
